Laboratory results taken from patent publication US20030054535A1, “Endoglucanase mutants and mutant hydrolytic depolymerizing enzymes and uses thereof” (priority 1999, published 2003).

B1: Acidothermus cellulolyticus EI endoglucanase (Cel5A) catalytic domain, native (wild type), SEQ ID NO:3 of U.S. Pat. No. 5,536,655 (Acidothermus cellulolyticus … (protein)
chain: AGGGYWHTSGREILDANNVPVRIAGINWFGFETCNYVVHGLWSRDYRSMLDQIKSLGYNTIRLPYSDDILKPGTMPNSINFYQMNQDLQGLTSLQVMDKIVAYAGQIGLRIILDRHRPDCSGQSALWYTSSVSEATWISDLQALAQRYKGNPTVVGFDLHNEPHDPACWGCGDPSIDWRLAAERAGNAVLSVNPNLLIFVEGVQSYNGDSYWWGGNLQGAGQYPVVLNVPNRLVYSAHDYATSVYPQTWFSDPTFPNNMPGIWNKNWGYLFNQNIAPVWLGEFGTTLQSTTDQTWLKTLVQYLRPTAQYGADSFQWTFWSWNPDSGDTGGILKDDWQTVDTVKDGYLAPIKSSIFDPVG
B2: Acidothermus cellulolyticus EI endoglucanase (Cel5A) catalytic domain variant W42R, SEQ ID NO:1 (Acidothermus cellulolyticus 11B; W83R) (protein)
chain: AGGGYWHTSGREILDANNVPVRIAGINWFGFETCNYVVHGLRSRDYRSMLDQIKSLGYNTIRLPYSDDILKPGTMPNSINFYQMNQDLQGLTSLQVMDKIVAYAGQIGLRIILDRHRPDCSGQSALWYTSSVSEATWISDLQALAQRYKGNPTVVGFDLHNEPHDPACWGCGDPSIDWRLAAERAGNAVLSVNPNLLIFVEGVQSYNGDSYWWGGNLQGAGQYPVVLNVPNRLVYSAHDYATSVYPQTWFSDPTFPNNMPGIWNKNWGYLFNQNIAPVWLGEFGTTLQSTTDQTWLKTLVQYLRPTAQYGADSFQWTFWSWNPDSGDTGGILKDDWQTVDTVKDGYLAPIKSSIFDPV
notes: the protein was genetically truncated near the beginning of the linker peptide; made in house; host or cells: E. coli XL1-blue
B3: Acidothermus cellulolyticus EI endoglucanase (Cel5A) catalytic domain variant Y82R, SEQ ID NO:2 (Acidothermus cellulolyticus 11B; Y123R) (protein)
chain: AGGGYWHTSGREILDANNVPVRIAGINWFGFETCNYVVHGLWSRDYRSMLDQIKSLGYNTIRLPYSDDILKPGTMPNSINFRQMNQDLQGLTSLQVMDKIVAYAGQIGLRIILDRHRPDCSGQSALWYTSSVSEATWISDLQALAQRYKGNPTVVGFDLHNEPHDPACWGCGDPSIDWRLAAERAGNAVLSVNPNLLIFVEGVQSYNGDSYWWGGNLQGAGQYPVVLNVPNRLVYSAHDYATSVYPQTWFSDPTFPNNMPGIWNKNWGYLFNQNIAPVWLGEFGTTLQSTTDQTWLKTLVQYLRPTAQYGADSFQWTFWSWNPDSGDTGGILKDDWQTVDTVKDGYLAPIKSSIFDPV
notes: as for B2
B4: Acidothermus cellulolyticus EI endoglucanase (Cel5A) catalytic domain variant Y245G, SEQ ID NO:3 (Acidothermus cellulolyticus 11B; Y286G) (protein)
chain: AGGGYWHTSGREILDANNVPVRIAGINWFGFETCNYVVHGLWSRDYRSMLDQIKSLGYNTIRLPYSDDILKPGTMPNSINFYQMNQDLQGLTSLQVMDKIVAYAGQIGLRIILDRHRPDCSGQSALWYTSSVSEATWISDLQALAQRYKGNPTVVGFDLHNEPHDPACWGCGDPSIDWRLAAERAGNAVLSVNPNLLIFVEGVQSYNGDSYWWGGNLQGAGQYPVVLNVPNRLVYSAHDYATSVGPQTWFSDPTFPNNMPGIWNKNWGYLFNQNIAPVWLGEFGTTLQSTTDQTWLKTLVQYLRPTAQYGADSFQWTFWSWNPDSGDTGGILKDDWQTVDTVKDGYLAPIKSSIFDPV
notes: the mutant and wild type Cel5A catalytic domains were purified using the purification methods described above; made in house; host or cells: E. coli XL1-blue

Experiments:
[1] = substrate: OC[C@H]1O[C@@H](O[C@H]2[C@H](O)[C@@H](O)[C@H](O[C@H]3[C@H](O)[C@@H](O)C(O)O[C@@H]3CO)O[C@@H]2CO)[C@H](O)[C@@H](O)[C@@H]1O; assay: purified protein, by the assay type; settings: other: cellotriose, 5 mM acetate pH 5.0, 50 degrees C, 50.0 °C
[2] = substrate: OC[C@H]1O[C@@H](O[C@H]2[C@H](O)[C@@H](O)[C@H](O[C@H]3[C@H](O)[C@@H](O)C(O)O[C@@H]3CO)O[C@@H]2CO)[C@H](O)[C@@H](O)[C@@H]1O; assay: purified protein, by the assay type; type: biochemical, Acidothermus cellulolyticus; settings: other: cellotriose, 5 mM acetate pH 5.0, 50 degrees C, 50.0 °C
Description: Each assay mixture was pre-incubated at 50 degrees C. for 10 min. prior to the addition of 0.00272 micromolar (0. 1092 microgram/mL) enzyme, which was also made up in 5 mM acetate buffer with 10 microgram/mL BSA. The final assay volume was 0.1 mL.
At set-time intervals, an aliquot of the reaction mixture was pulled and immediately analyzed for the release of cellobiose using a Dionex DX300 chromatography system and a Dionex PAD2 pulsed amperometric detector having a gold working electrode. The response of this detector was optimized for the detection of carbohydrates using a waveform defined by the following time and potential settings: t1=420 msec.; EI=+0.05 V; t2=180 msec.; E2=+0.75 V; t3=360 msec.; and E3=−0.15 V. Separation of the reaction products, from the substrate, was achieved on a Dionex CarboPac PA-1 analytical (4×250 mm) column equipped with CarboPac PA-1 (4×50 uard column, 500 mM sodium hydroxide eluent, and a flow rate of 1.5 mL/min. The amount of cellobiose present for each time-point-sample was quantified by comparing the area of the cellobiose peak against a linear calibration curve. The kinetic constants were determined with a double-reciprocal-plot, where the reciprocal of the rate of cellobiose produced was plotted as a function of the inverse of the substrate concentration.
Michaelis-Menten kinetics of the mutant EI enzymes and the native enzyme were determined.

Protein | Km [1] [µM] | Vmax [1] [µM/min] | Km [2] [µM] | Vmax [2] [µM/min]
B1 | 350 | 0.86 | – | –
B2 | – | – | 610 | 0.99
B3 | – | – | 690 | 1.5
B4 | – | – | 480 | 0.85
